Measurements taken from patent US9526786B2, “Thermostabilization of proteins” (The Trustee of Columbia University in the City of New York, priority 2007, dated 2016).
Substitutions are numbered along the chain they refer to. Names may count otherwise.

Experiments:
CocE [1] = target: T1, CocE (Rhodococcus sp., UniProt Q9L9D7); type: biochemical, Rhodococcus sp. MB 1; details: for stabilization of CocE at 37° C., lower concentrations: cocaine lower than 62.5 μM, others below 125 μM
T1 construct: 6xHis (C); made in house; host or cells: E. coli BL-21 Gold (DE3), pET-22b(+)
T1 sequence (Q9L9D7 1-574): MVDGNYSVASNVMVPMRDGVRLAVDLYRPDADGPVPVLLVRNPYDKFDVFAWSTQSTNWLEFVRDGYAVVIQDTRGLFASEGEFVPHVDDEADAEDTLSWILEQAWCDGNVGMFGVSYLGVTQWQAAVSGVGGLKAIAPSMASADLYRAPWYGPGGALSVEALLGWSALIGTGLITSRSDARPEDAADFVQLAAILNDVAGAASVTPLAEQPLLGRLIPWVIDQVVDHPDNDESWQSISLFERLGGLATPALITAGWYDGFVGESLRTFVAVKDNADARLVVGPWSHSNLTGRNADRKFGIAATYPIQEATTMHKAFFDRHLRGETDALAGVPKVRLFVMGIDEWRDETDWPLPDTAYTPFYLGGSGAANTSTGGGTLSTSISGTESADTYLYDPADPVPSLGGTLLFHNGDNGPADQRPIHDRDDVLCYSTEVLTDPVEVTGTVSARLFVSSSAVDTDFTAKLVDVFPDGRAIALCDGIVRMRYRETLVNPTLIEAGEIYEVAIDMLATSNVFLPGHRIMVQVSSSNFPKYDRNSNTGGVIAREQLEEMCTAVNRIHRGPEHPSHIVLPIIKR
Protocol: (§1) Further spectrophotometric analysis of cocaine stabilization was performed, by analyzing the ability of CocE to cleave 4-nitrophenyl acetate, after preincubation at 37° C. for various times, in the presence of various concentrations of cocaine.

CocE WT = target: T2, CocE WT (Rhodococcus sp., UniProt Q9L9D7); assay: Inhibition of CocE WT aggregate formation, non-denaturing gel, 1 hour at 37° C.; design: species or system Rhodococcus sp. MB 1
T2 construct: 6xHis (C); made in house; host or cells: E. coli BL-21 Gold (DE3), pET-22b(+)
T2 sequence (Q9L9D7 1-574): T1 sequence (Q9L9D7 1-574)
Excerpt: To further study CocE stabilization with small molecules, other inhibitors of the CocE cleavage reaction were considered.

CocE [2] = target: T1, CocE; type: biochemical, Rhodococcus sp. MB 1; details: cocaine: 62.5 and 125 μM; benzoic acid: higher concentrations
Protocol: CocE is also able to cleave another substrate, 4-nitrophenyl acetate (FIG. 3). Cleavage is monitored by detection of the appearance of the 4-nitrophenol reaction product, which absorbs at 400 nm.
as §1, with “cocaine. […] However, preincubation of CocE at the higher concentrations for various times at 37° C. indicated the enzyme was stabilized enough to be able to cleave the 4-nitrophenyl substrate (FIG. 5).” for “cocaine.”

[3] = test system: cocaine-induced lethality; assay: In vivo potency of protection against cocaine-induced lethality; design: species or system NIH-Swiss mice
[4] = Protocol: Analysis of CocE action on cocaine cleavage is performed by utilizing the spectroscopic properties of cocaine, which maximally absorbs light at a 240 nm wavelength. CocE activity is measured by monitoring for a decrease in signal at A240, using various concentrations of cocaine, and determining the initial rate of the decrease. From these values the Vmax of the enzyme can be determined. By pre-incubating the enzyme at 37° C. for various times before monitoring for activity, the half life of CocE at 37° C. can be calculated.
The initial rates (of decay) were determined by following the change in the intrinsic absorbance of cocaine at 240 nm (6700 M^1 cm^1)(Xie et al., 1999) using a SpectraMax Plus 384 UV plate reader (Molecular Devices, Sunnyvale, Calif.) using SOFTmax Pro software (Version 3.1.2). The reaction was initiated by adding 100 μL of a 2× enzyme solution (100 mM phosphate buffer, pH 7.4 and 300 mM NaCl) to 100 μL of a 2× cocaine solution (50 μg/mL enzyme, 100 mM Phosphate Buffer, pH 7.4 and 300 mM NaCl). All assays were performed with 100 μM DTT unless indicated otherwise. […] For stability measurements, wild type and mutant enzymes were diluted to 2× concentration and incubated at 37° C. for the times indicated. At the end of each time point, an aliquot was removed and kinetic behavior was observed as outlined above.
(§2) In vitro kinetic assays. […] Initial rates were then used to determine Michaelis-Menten parameters. To assess thermal stability, enzyme preparations were preincubated at 37° C. for various lengths of time, prior to measurement of residual activities (Table 1 and FIG. 23).

[5] = Michaelis-Menten kinetics of cocaine hydrolysis (absorbance at 240 nm); type: biochemical
Protocol: The initial rates (of decay) were determined by following the change in the intrinsic absorbance of cocaine at 240 nm (6700 M^1 cm^1)(Xie et al., 1999) using a SpectraMax Plus 384 UV plate reader (Molecular Devices, Sunnyvale, Calif.) using SOFTmax Pro software (Version 3.1.2). The reaction was initiated by adding 100 μL of a 2× enzyme solution (100 mM phosphate buffer, pH 7.4 and 300 mM NaCl) to 100 μL of a 2× cocaine solution (50 μg/mL enzyme, 100 mM Phosphate Buffer, pH 7.4 and 300 mM NaCl). All assays were performed with 100 μM DTT unless indicated otherwise. Final cocaine concentrations were as follows: 125, 62.5, 31.25, 15.63, 7.81, 3.91, 1.95, and 0.977 μM. Vmax and Km values were calculated using Prism (GraphPad Software, San Diego). For stability measurements, wild type and mutant enzymes were diluted to 2× concentration and incubated at 37° C. for the times indicated. At the end of each time point, an aliquot was removed and kinetic behavior was observed as outlined above.
as §2
Determination of Catalytic Efficiency. To determine the catalytic activity a spectrophometric assay was performed. Samples of L169K/G173Q CocE were added to a 96-well UV permeable plate containing increasing cocaine concentrations (0.5, 2.5, 5, 12.5, 25, 50, 100, and 150 μM) to give a final concentration of 10 ng/ml CocE in a final volume of 200 μl. The change in absorbance at 240 nm was measured over 20 minutes, with readings every 10 seconds, by a SpectraMax Plus 384 UV plate reader (Molecular Devices, Sunnyvale, Calif.) using SOFTmax Pro software (Version 3.1.2). The change in absorbance was converted to the change in concentration and furthermore the rate of decay per mole enzyme is determined (Kcat). Kcat and Km of the enzyme are determined using Prism (GraphPad software, San Diego).

[6] = test system: cocaine-induced lethality; assay: In vivo duration of protection against cocaine-induced lethality; design: species or system NIH-Swiss mice
Protocol: In vivo protection against cocaine lethality. Male NIH-Swiss mice (25-32 g) were obtained from Harlan Inc. (Indianapolis, Ind.) and were housed in groups of 6 mice per cage. All mice were allowed ad libitum access to food and water, and were maintained on a 12-h light-dark cycle with lights on at 06.30 AM in a room kept at a temperature of 21-22° C. Experiments were performed in accordance with the Guide for the Care and Use of Laboratory Animals as adopted and promulgated by the National Institutes of Health. The experimental protocols were approved by the University Committee on the Use and Care of Animals at the University of Michigan.
Cocaine-induced toxicity was characterized by the occurrence of lethality, as defined by the cessation of observed movement and respiration. Mice were placed individually in Plexiglas observation chambers (16×28×20 cm high) to be habituated for 15 min before drug administration. Following intra-peritoneal (i.p.) cocaine administration, the mouse was immediately placed individually in the same chamber for observation. The presence or absence of lethality was recorded for 60 min following cocaine administration. The mouse was placed in a small restraint chamber (Outer tube diameter: 30 mm; Inner tube diameter: 24 mm) that left the tail exposed. The tail was cleansed with an alcohol wipe and a 30G1/2 precision glide needle (Fisher Scientific, Pittsburgh, Pa.) was inserted into one of the side veins for infusion. The i.v. injection volume of CocE or CocE mutant was 0.2 mL per mouse. Sterile gauze and pressure were applied to the injection site to staunch the bleeding.
Lethality was monitored following injection at 1, 5, 10, or 30 min, or 1, 2, 3, 4, 5 hours after enzyme administration. Each treatment used 8 mice to assess the percent of lethality (i.e., protection) in mice pretreated with a single dose of an esterase at a single time point.
These values were used to compare the degree of rightward shifts of cocaine's dose-response curve in the absence or presence of the enzyme pretreatment. In the time course study, a time point for duration of protection (i.e., 50% of lethality) was estimated by using each time course curve crossing 50% occurrence of lethality.
Evaluation of in vivo half life. CocE is administered IV to the tail vein in a volume of 0.2 ml. Animals are challenged with 180 mg/kg cocaine delivered intraperitoneally at a given time after CocE administration.

[7] = 1 mg i.v., cocaine 180 mg/kg i.p.

CC(=O)[O-].[Na+] [sodium acetate]
stabilization of CocE at 37° C., lower concentrations (CocE [1]): did not reveal any stabilization
inhibition of formation of CocE protein aggregates (CocE WT): could not

O=C(O)c1ccccc1 [benzoic acid]
stabilization of CocE at 37° C., higher concentrations (CocE [1]; cocaine 62.5 and 125 μM, benzoic acid above 125 μM): stabilize
stabilization of CocE at 37° C., lower concentrations (CocE [1]): did not reveal any stabilization
inhibition of formation of CocE protein aggregates (CocE WT): inhibited the formation of aggregates
inhibition of 4-nitrophenyl acetate cleavage (CocE [2]): inhibit

COC(=O)[C@@H]1[C@H]2CC[C@@H](C[C@@H]1O)N2C [ecgonine methyl ester]
stabilization of CocE at 37° C., lower concentrations (CocE [1]): did not reveal any stabilization
inhibition of formation of CocE protein aggregates (CocE WT): could not

B1: T172R/G173Q: CocE double mutant (protein, listed as Rhodococcus sp.)
chain: T1 sequence (Q9L9D7 1-574) with T172R, G173Q
protection against cocaine-induced lethality ([3]; i.v. pretreatment 1 min prior to i.p. cocaine): protected
Stability @ 37 (t1/2) [4]: ~5.43 h
half-life / τinact of activity at 37° C. [4]: 5.43 h
t1/2 [4]: 5.43 h
plateau of catalytic activity, percent of maximal ([4]; 37° C., after greater than 8 hr / t=10 hours): approximately 35%
extension of in vitro τinact at 37° C. ([4]; from 10 min): approximately 27 fold
Kcat(mol · s^−1 · mol^−1) ([5]; cocaine): 2247 mol · s^−1 · mol^−1
LT50, pretreatment time to 50% lethality [6, 7]: up to 4.5 hr
LT50, pretreatment time to 50% lethality ([6]; 1 mg i.v., cocaine 180 mg/kg i.p., listed as T172R-G173Q): ~4.5 h
extension of pretreatment duration with 50% protection ([6]; mouse, in vivo): greater than 20 fold

B2: L169K/G173Q/T172R: CocE triple mutant (protein)
chain: T1 sequence (Q9L9D7 1-574) with L169K, T172R, G173Q
enhanced stabilization at 37° C. ([4]; data not shown): did not display an enhanced stabilization

B3: L169K/G173Q: CocE double mutant, SEQ ID NO:1 with substitutions L169K and G173Q (protein, listed as Rhodococcus sp.)
chain: T1 sequence (Q9L9D7 1-574) with L169K, G173Q
lowest dose maintaining some degree of protection ([3]; i.v., cocaine i.p. 1 min later): 0.01 mg
protection from increasing lethal doses of cocaine ([3]; i.v., cocaine i.p. 1 min later): dose-dependently protected
turnover per molecule of enzyme [5]: approximately 6000 molecules of cocaine per minute
time for which 50% of mice were protected from death [6, 7]: up to 7.5 hrs

B4: G173Q: CocE mutant (protein, listed as Rhodococcus sp.)
chain: T1 sequence (Q9L9D7 1-574) with G173Q
Stability @ 37 (t1/2) [4]: ~0.417 h
